doi:10.1101/2024.05.27.596091
Where two headings read alike, the source gives them in different places.

Experiments:
αβ-tubulin (bovine) [1] = biological target: αβ-tubulin (bovine) (UniProt Q6B856); experiment: co-sedimentation
αβ-tubulin (bovine) [2] = biological target: αβ-tubulin (bovine) (UniProt Q6B856); experiment: co-sedimentation; remark: listed apart in the source

critical concentration for spontaneous nucleation (αβ-tubulin (bovine) [1]): 3.9 µM
critical concentration for spontaneous nucleation (αβ-tubulin (bovine) [2]): 20.7 µM
Substance: αβ-tubulin (from UniProt Q6B856 1-445) (complex)
